Test results from article PMC2790891.

Legend:
[1] = biological target: SsoDpo1 exonuclease mutant (D231A/D318A) (Sulfolobus solfataricus P2) (UniProt P26811); experiment: native gel or EMSA
[2] = biological target: SsoDpo1 exonuclease mutant (D231A/D318A) (Sulfolobus solfataricus P2) (UniProt P26811); experiment: ITC
[3] = biological target: T1, SsoDpo1 exo- (B-family DNA polymerase 1) (Sulfolobus solfataricus, UniProt P26811 1-882, D231A;D318A); experiment: EMSA
T1 sequence: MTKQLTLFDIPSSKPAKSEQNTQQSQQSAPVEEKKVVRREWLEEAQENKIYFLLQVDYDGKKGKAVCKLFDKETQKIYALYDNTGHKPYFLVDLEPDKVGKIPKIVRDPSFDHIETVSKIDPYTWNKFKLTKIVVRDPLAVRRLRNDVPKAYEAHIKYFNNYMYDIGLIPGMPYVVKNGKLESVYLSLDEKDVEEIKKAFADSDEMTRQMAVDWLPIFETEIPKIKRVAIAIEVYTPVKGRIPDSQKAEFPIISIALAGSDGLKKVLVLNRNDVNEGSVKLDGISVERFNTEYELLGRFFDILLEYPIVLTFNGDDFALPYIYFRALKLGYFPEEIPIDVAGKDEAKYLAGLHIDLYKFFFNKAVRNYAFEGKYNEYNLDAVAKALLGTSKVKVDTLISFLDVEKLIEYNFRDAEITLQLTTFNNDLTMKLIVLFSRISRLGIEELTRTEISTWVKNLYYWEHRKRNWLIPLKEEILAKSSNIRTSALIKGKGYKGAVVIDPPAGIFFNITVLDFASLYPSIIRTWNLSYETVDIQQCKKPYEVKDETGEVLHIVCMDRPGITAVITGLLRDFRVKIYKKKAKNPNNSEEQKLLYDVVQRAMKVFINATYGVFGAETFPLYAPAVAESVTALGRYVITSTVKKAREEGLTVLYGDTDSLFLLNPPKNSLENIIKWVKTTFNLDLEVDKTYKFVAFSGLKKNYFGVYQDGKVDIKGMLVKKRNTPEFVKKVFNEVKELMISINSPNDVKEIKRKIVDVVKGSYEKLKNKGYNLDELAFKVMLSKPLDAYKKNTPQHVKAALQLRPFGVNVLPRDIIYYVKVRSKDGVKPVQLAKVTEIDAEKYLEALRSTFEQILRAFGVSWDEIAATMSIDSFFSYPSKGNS

[4] = biological target: T1, SsoDpo1 exo- (B-family DNA polymerase 1); experiment: fluorescence anisotropy
[5] = biological target: T1, SsoDpo1 exo- (B-family DNA polymerase 1); experiment: ITC

“SsoDpo1 exonuclease mutant (D231A/D318A) (from UniProt P26811 1-882) (enzyme)” gave a stoichiometry N [1] of 3.5 and a stoichiometry N [2] of 2.84.

B1: long p/tDNA 28/66-mer (dsDNA)
DNA 1: CACCTCTCCCTACGCTTCCCACCCACCCCGACCGGCATCTGCTATGGTACGCTGAGCGAGAGTAGC
DNA 2: GCTACTCTCGCTCAGCGTACCATAGCAG
In the case of B1, the Kd [3] is reported as 0.1 ± 0.01 nM.

B2: Cy5 p/tDNA hairpin (structured_DNA)
DNA: TTTTTTTTTTTTTTTCGAATGGCGCTTTGCCTGGTTTTTACCAGGCAAAGCGCCATTCG
B2: binds [4].

B3: short p/tDNA 21/31-mer (dsDNA)
DNA 1: GCTGTGCTCTCGCCGCGTGCC
DNA 2: TATCTTCTATGGCACGCGGCGAGAGCACAGC
B3 gave a Kd [5] of 1200 ± 100 nM.
